The record followed here is publication PMC11148769.

The target of this experiment is BA.2.12.1 S trimer (SARS-CoV-2) (UniProt P0DTC2). The experiment can be described thus: cryo-EM structure.

“BA.2.12.1 S trimer (from UniProt P0DTC2 28-1208) (natural protein)”: the stoichiometry N stood at 3.

What is called stoichiometry N is the number of molecules, sites or subunits per partner or assembly.
